Test results from patent publication US11230711B2, “Inhibition of LET7I as a means to enhance the protective effect of progesterone against stroke” (UNIVERSITY OF NORTH TEXAS HEALTH SCIENCE CENTER, priority 2017, dated 2022).

Tested on: primary cortical neurons
Assay: Synaptic marker expression (Synaptophysin, Gap-43) in primary cortical neurons, immunostaining and qRT-PCR
Type: cell-based, mouse
Conditions: P4-ACM from 10 nM P4-treated astrocytes, 18 hrs, BDNF 50 ng/ml, FIGS. 1A-1B
Excerpt: FIG. 1A represents immune-staining of Gap43 (green) and Synaptophysin (red). FIG. 1B represents qRT-PCR analysis of Gap43 (left) and Synaptophysin (right) mRNA levels. Data are presented as a percentage of control (non-treated group) (*: p≤0.05, **:p≤0.01).
The use of animals for the purpose of generating primary cultures was approved by the Institutional Animal Care and Use Committee at the University of North Texas Health Science Center. All mice will be handled according to the Guide for the Care and Use of Laboratory Animals. Primary cultures of cortex and hippocampal neurons will be prepared from neonatal murine pups (C57BL/6 mice, Jackson Laboratory) as described by Sarkar et al. with modifications. Briefly, cortical tissues isolated from newborn mice (postnatal days 2-4, mixed gender) will be then dissociated with trypsin and DNase I for 10 min at 37° C., and wash twice with Neurobasal-A medium containing B-27 and further dissociated by gentle titration using a graded series of fine polished Pasteur pipettes. After centrifugation at 200×g for 3 min at 4° C., dissociated cells will be resuspended in Neurobasal-AB-27 medium, passed through a cell strainer with 70 μm mesh, and plated at 1.0×10^5 cells/cm2 on culture dishes precoated with poly-D-lysine. The culture dishes were kept at 37° C. in humidified 95% air and 5% CO2. For primary neuron-enriched culture, the initial culture medium was replaced after 5 h; subsequently, half of the medium was changed every 3 days. At day in vitro (DIV) 3, 1-β-arabinofuranosylcytosine (AraC) was added to a final concentration of 5 μM to prevent glial proliferation. Treatments of the primary neuronal cultures started at DIV 14. For glial-enriched cultures, confluent mixed glial cultures were placed on the shaker for 48 hrs to dislodge microglia, resulting in cultures enriched with astrocyte population.
Although the underlying mechanism remains unclear, one potential mediator for P4-induced synaptogenesis is BDNF [33].

[1] = listed as purified recombinant BDNF

B1: BDNF: purified recombinant brain-derived neurotrophic factor, 50 ng/ml, positive control (protein, UniProt P23560 19-247, looked up)
Neurotrophic factor BDNF …: APMKEANIRGQGGLAYPGVRTHGTLESVNGPKAGSRGLTSLADTFEHVIEELLDEDQKVRPNEENNKDADLYTSRVMLSSQVPLEPPLLFLLEEYKNYLDAANMSMRVRRHSDPARRGELSVCDSISEWVTAADKKTAVDMSGGTVTVLEKVPVSKGQLKQYFYETKCNPMGYTKEGCRGIDKRHWNSQCRTTQSYVRALTMDSKKRIGWRFIRIDTSCVCTLTIKRGR
expression of Gap-43: increased expression
expression of Synaptophysin: increased expression
expression of Gap-43 [1]: increased the expression
expression of Synaptophysin [1]: increased the expression
